Data on 1 sequence can be found in article PMC12421842.

In the data set the target is T1, HicB (HicB-His) (Neisseria gonorrhoeae FA1090) (UniProt Q5F6D2).
T1 sequence: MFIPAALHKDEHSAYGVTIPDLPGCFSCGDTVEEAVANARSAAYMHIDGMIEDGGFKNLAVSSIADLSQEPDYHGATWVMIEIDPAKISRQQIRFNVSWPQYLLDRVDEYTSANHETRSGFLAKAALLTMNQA
Briefly: competition. The conditions noted are these: EMSA: 20 mM HEPES pH 7.6, 1 mM EDTA, 10 mM (NH4)2SO4, 1 mM DTT, 0.2% Tween-20, 30 mM KCl, 1.25 ng/uL calf thymus DNA, 30 min at 30 C.

As for “TTCACCCTTGCCTGTGCTGCCAAAGCAGCCATCGGCGGTTTTGCTTTCTGTTCCACTTTCCGTCGCGTTACCGCGCCCGGCCGTTAACCGGCATTCTACCCTGCGGAGCCCGGACTTTCCTCCCCGTAT (double strand) [rnpB fragment]”, the binding result was “no binding”.
